pEC50, pIC50, pKd: −log10 of the molar value.

The target of data set [1] is lamin A peptide LA 572-588;histone octamer (H2A, H2B, H3, H4) (;Xenopus laevis) (UniProt P02545+P84233+P62799+P06897+P02281). Description: competition (TIRF). The settings on record: EMSA: 150 mM NaCl, 20 mM HEPES pH 7.5, 1 mM DTT, 4 C, 1 h, 6% native PAGE; TIRF buffer not in the material. For orientation: Mobility shift assays separate free from complexed probe on a gel.

The target of data set [2] is lamin A tail LA 430-585;histone octamer (H2A, H2B, H3, H4) (Xenopus laevis) (UniProt P84233+P62799+P06897+P02281). Description: EMSA. Particulars: 0.05 uM Alexa 488 nucleosome; LA 3.1-400 uM; EMSA: 150 mM NaCl, 20 mM HEPES pH 7.5, 1 mM DTT, 4 C, 1 h, 6% native PAGE; TIRF buffer not in the material.
Data set [3] concerns the target lamin A 430–585 C570A, labelled with CF660R (UniProt P02545). Briefly: fluorescence correlation spectroscopy (FCS); 500 pM CF660R-labelled LA 430–585 C570A, diffusion time against H2A–H2B concentration; 20 mM HEPES pH 8, 150 mM NaCl, 0.01% Tween20, 2 mM ascorbic acid and methyl viologen; one-to-one binding model.
In data set [4] the target is H4K20C nucleosome labelled with Alexa Fluor 488 (Xenopus laevis). Description: native gel or EMSA; 4 °C; 150 mM NaCl, 20 mM HEPES pH 7.5, 1 mM DTT; 0.05 µM Alexa 488-labeled nucleosomes with 3.1 µM to 400 µM lamin fragment, 1 h; 6% native PAGE.
Data set [5] shares this target. Description: TIRF microscopy on micropatterned nucleosomes, competition; as a6 with 1 µM CF660R-labelled LA 430–585 and 0 to 1500 µM unlabelled peptide LA 572–588; ratio of lamin to nucleosome fluorescence fitted with a four-parameter dose–response Hill–Langmuir equation.

In general, pIC50 refers to −log10 of the IC50, conventionally taken in molar units. A lower pIC50 goes with a large IC50. As a reminder, the pKd is the Kd on a negative log10 scale, so that one unit is a factor of ten. As for 197 bp 601 nucleosome, in data set [1], the pIC50 is 5.30. This substance also had a pKd in data set [2] of 4.32.
“H2A–H2B heterodimer (Xenopus laevis) (from UniProt P06897 11-120; P02281 1-126) (complex)” gave a negative logarithm of the Kd (pKd) in data set [3] of 4.92.
As to “lamin A 430–585, from the 6xHis-SUMO plasmid, tag cleaved (from UniProt P02545 430-585) (domain or fragment)”, in data set [4], the pKd was 4.32.
A word on the pEC50: it is the negative decadic logarithm of the EC50, by convention in mol/L. For “synthetic peptide comprising amino acids 572–588 of lamin A”, in data set [5], the negative-log EC50 (pEC50) was 5.30.

The record behind these values is publication PMC12527912.
